# Experimental data reported in patent publication US20240210403A1 (MARTELL DIAGNOSTIC LABORATORIES, published 2024).
# B1: 1B7 anti-HER2 rabbit monoclonal antibody (antibody, V domains shown)
# VH: QSVEESGGRLVTPGTPLTLTCTVSGIDLSDYAMGWVRQAPGKGLEYIGIISSSGNTHYARWARGRFTISKTSSTTVDLKMTSLTTEDTATYFCARNYPGYANYALWGQGTLVTVSS
# VL: RIVMTQTPASVSAAVGGTVTIKCQASESISNWLSWYQQKPGQPPKLLIYRASTLASGVPSRFSGSGSGTEYTLTISDLECADAATYYCQQDYIYNDIDNAFGGGTEVVVKG
# notes: Recombinant rabbit IgG (gamma 1 heavy, kappa 1 light) expressed in 293F cells; Used as the coated capture antibody; also called Capture Antibody (1B7; Yurogen)
# Target: T1, human HER2 protein present in serum samples (human, UniProt P04626 23-652)
# T1 construct: extracellular domain; Endogenous analyte in human sera; also called sHER2; serum HER2
# Assay: sandwich ELISA, 1B7 capture/1G5-biotin detection
# Experimental: Standards, controls and samples were pipetted into the wells, and any HER2 present was bound by the immobilized antibody. […] Following a wash to remove unbound conjugate, a substrate solution was added to the wells, and color developed in proportion to the amount of HER2 bound. After color development was stopped, the absorbance was measured using a microplate spectrophotometer.
# Sample Buffer/Antibody Diluent (10% Casein in 1×PBS) was prepared (˜40 mL/plate). After incubation, plates were washed on a plate washer as described herein. 245 μL of Sample Buffer then was pipetted into a labeled snap-cap tube for each patient sample to be tested, as well as for each standard and control. A 1:50 dilution of each patient sample as well as each standard and control was generated (e.g., 5 μL of each sample in 95 μL of Sample Buffer). 100 μL of each sample (patient, standard, control, and blank (i.e., 100 μL of Sample Buffer)) was pipetted into their respective wells as indicated on the plate map. The wells were covered with an adhesive plate cover, placed in a microplate shaker (Corning LSE Digital Microplate Shaker) at 500 rpms for 1 min, and then incubated at room temperature for 1 hour.
# After incubation, plates were washed on a plate washer as described herein. […] 100 μL was pipetted into each well and the plate was covered with an adhesive plate cover. […]
binder,measurement,value
B1,binding result,binds
